Results as given in patent US20030077740A1, “Presenilin/Crk binding polypeptides (PCBP) and methods of use thereof” (priority 2001, published 2003).

Tests used:
full length PS1 [1] = biological target: T1, full length PS1 (Homo sapiens, UniProt P49768); assay: co-immunoprecipitation with full length PS1 in 293T cell lines; type: binding; conditions: co-immunoprecipitation, 293T lines stably expressing PS1
T1 construct: three different clonal 293T cell lines which stably express full length PS1 were transfected with PBP-TAG; expressed in transfected cells; host or cells: clonal 293T cell lines stably expressing PS1
Excerpt: (§1) To examine the interaction of PBP with the fill length PS molecule, three different clonal 293T cell lines which stably express full length PS1 were transfected with PBP-TAG and the ability of PS1 to bind to PBP assayed by immunoprecipitation. Forty-eight hrs after transfection, cells were lysed and proteins immunoprecipitated with 12CA5 (anti-TAG), which recognizes PBP-TAG (anti-PBP-TAG). The immunoprecipitates were subjected to polyacrylamide gel electrophoresis, transferred to Immobilon-P, and reacted with anti-TAG or an anti-serum against PS1.
(§2) For immunoprecipitation of the large hydrophilic loop of PSs or Crk with PBP, cells were lysed in RIPA buffer (100 mM NaCl, 0.5% NP-40, 0.5% DOC, 0.1% SDS, 50 mM Tris, pH 7.5, 1 mM PMSF and 1 μg/ml aprotinin, 1 μg/l leupeptin) on ice for 30 min. For immunoprecipitation of full length PS1 with PBP, RIPA buffer with 1% NP40 but without DOC and SDS was used. Cell lysates were spun for 10 min at 10,000 g. The resulting supernatants were preadsorbed with anti-mouse IgG-agarose (Sigma) for 4 hours at 4° C. After centrifugation, antibody 12CA5 and anti-mouse IgG-agarose were added at 4° C. overnight. […] The bound antibodies were detected by the ECL-plus chemiluminescence system (Amersham, Arlington Heights, Ill.). […]

full length PS1 [2] = biological target: T2, full length PS1 (Homo sapiens, UniProt P49768, L392V); assay: as above; type: binding; conditions: PS1 expressing the L392V mutation, overexpressing cells
T2 construct: three different clonal 293T cell lines which stably express full length PS1 were transfected with PBP-TAG; expressed in transfected cells; host or cells: clonal 293T cell lines stably expressing PS1
Excerpt: as §1, §2

HEK293 cells = assay: secretion of endogenous APP751 by HEK293 cells; type: cell-based; conditions: HEK293 cells expressing PBP
Protocol: Western blotting, metabolic labeling and immunoprecipitation: For western blotting, cells were washed twice with ice-cold PBS and lysed in lysis buffer (1% Triton, 50 mM Hepes pH 7.5, 50 mM NaCl, 5 mM EDTA, 1 mM Na3VO4, 50 mM NaF, 10 mM Na4P2O7, plus a mixture of protease inhibitors (Complete Mini; Roche, Ind., USA). Protein concentrations were determined by Coomassie Plus (Pierce; IL, USA). The same amount of protein from each sample was separated on Novex pre-cast polyacrylamide gels (Invitrogen; CA, USA), and transferred to Immobulin membranes (Millipore; MA, USA). The membranes were blocked with 5% non-fat milk in Tris-buffered saline for 1 hour at room temperature. Following overnight incubation at 4° C. with primary antibodies, the antigens are detected with horseradish peroxidase-conjugated secondary antibodies (Bio-Rad; CA, USA; 1:20,000), an ECL kit (Amersham; NJ, USA), and exposed to films. For pulse-chase experiments, cells were grown to 80% confluency and incubated in methionine-free DMEM for 90 min. […] Protein concentrations were determined and the same amounts of proteins were immunoprecipitated with antibodies at 4° C. overnight 25 μl of anti-mouse IgG agarose (Roche) was then added to each sample and incubated at 4° C. for 2 hours on a rocker platform. […] The gels were dried and subjected to autoradiography and quantitated by NIH image. […]

## PBP: novel 2027 amino acid protein, 233 kD, binds presenilins and Crk; expressed from cDNA in cells (KYGVVICSFRGSVPQGLVLEIGETVQILEKCEGWYRGVSTKKPNVKGLFPANYIHLK; listed as Mus musculus)
Full length PS1 [1]
  interaction with full length PS1: interacts
Full length PS1 [2]
  immune precipitation of PS1 L392V with PBP: immune precipitate with PBP
HEK293 cells
  secretion of endogenous APP751: reduced
